According to patent publication US20260049138A1 (Chugai, published 2026):

Biological target: T1, CD3ε homodimer protein (human, UniProt P07766 23-126, limits assumed, sulfo-tag or biotin label in the ECL assays; amine-coupled to the chip in SPR)
T1 construct: also called human CD3ε homodimer protein; CD3 (CD3ε)
Experiment: SPR Biacore T200; CD3ε homodimer on CM4 chip;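 further: Single-residue variant antibodies injected as analyte over CD3ε homodimer immobilized by amine coupling, run at 25 °C in HBS-EP+ buffer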

T1 sequence (P07766 23-126 limits assumed): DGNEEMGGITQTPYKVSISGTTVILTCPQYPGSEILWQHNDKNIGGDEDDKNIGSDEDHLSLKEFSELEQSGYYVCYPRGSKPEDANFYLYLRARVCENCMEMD

Row | Binder | ratio of amounts bound Z=Y/X (altered form / CE115HA000)
1 | CE115HA000 V95G one-arm antibody (antibody, human IgG1, kappa, L234A L235A, N297A, name in Kabat numbering) heavy: QVQLVESGGGVVQPGRSLRLSCAASGFTFSNAWMHWVRQAPGKGLEWVAQIKAKSNNYATYYAESVKGRFTISRDDSKNSLYLQMNSLKTEDTAVYYCRYGHYGAYYGVDAWGQGTTVTVSSASTKGPSVFPLAPSSKSTSGGTAALGCLVKDYFPEPVTVSWNSGALTSGVHTFPAVLQSSGLYSLSSVVTVPSSSLGTQTYICNVNHKPSNTKVDKKVEPKSCDKTHTCPPCPAPEAAGGPSVFLFPPKPKDTLMISRTPEVTCVVVDVSHEDPEVKFNWYVDGVEVHNAKTKPREEQYASTYRVVSVLTVLHQDWLNGKEYKCKVSNKALPAPIEKTISKAKGQPREPQVYTLPPSRCELTKNQVSLSCAVKGFYPSDIAVEWESNGQPENNYKTTPPVLDSDGSFFLVSKLTVDKSRWQQGNVFSCSVMHEALHNHYTQKSLSLSPDYKDDDDK EPKSSDKTHTCPPCPAPELLGGPSVFLFPPKPKDTLMISRTPEVTCVVVDVSHEDPEVKFNWYVDGVEVHNAKTKPREEQYNSTYRVVSVLTVLHQDWLNGKEYKCKVSNKALPAPIEKTISKAKGQPREPQVCTLPPSRDELTKNQVSLWCLVKGFYPSDIAVEWESNGQPENNYKTTPPVLDSDGSFFLYSKLTVDKSRWQQGNVFSCSVMHEALHNRYTQKSLSLSP light: DIVMTQSPLSLPVTPGEPASISCRSSQSLVHSNRNTYLHWYQQKPGQAPRLLIYKVSNRFSGVPDRFSGSGSGTDFTLKISRVEAEDVGVYYCGQGTQVPYTFGQGTKLEIKRTVAAPSVFIFPPSDEQLKSGTASVVCLLNNFYPREAKVQWKVDNALQSGNSQESVTEQDSKDSTYSLSSTLTLSKADYEKHKVYACEVTHQGLSSPVTKSFNRGEC | 0.19
2 | CE115HA000 V95K one-arm antibody (antibody, human IgG1, kappa, L234A L235A, N297A, name in Kabat numbering) heavy: QVQLVESGGGVVQPGRSLRLSCAASGFTFSNAWMHWVRQAPGKGLEWVAQIKAKSNNYATYYAESVKGRFTISRDDSKNSLYLQMNSLKTEDTAVYYCRYKHYGAYYGVDAWGQGTTVTVSSASTKGPSVFPLAPSSKSTSGGTAALGCLVKDYFPEPVTVSWNSGALTSGVHTFPAVLQSSGLYSLSSVVTVPSSSLGTQTYICNVNHKPSNTKVDKKVEPKSCDKTHTCPPCPAPEAAGGPSVFLFPPKPKDTLMISRTPEVTCVVVDVSHEDPEVKFNWYVDGVEVHNAKTKPREEQYASTYRVVSVLTVLHQDWLNGKEYKCKVSNKALPAPIEKTISKAKGQPREPQVYTLPPSRCELTKNQVSLSCAVKGFYPSDIAVEWESNGQPENNYKTTPPVLDSDGSFFLVSKLTVDKSRWQQGNVFSCSVMHEALHNHYTQKSLSLSPDYKDDDDK EPKSSDKTHTCPPCPAPELLGGPSVFLFPPKPKDTLMISRTPEVTCVVVDVSHEDPEVKFNWYVDGVEVHNAKTKPREEQYNSTYRVVSVLTVLHQDWLNGKEYKCKVSNKALPAPIEKTISKAKGQPREPQVCTLPPSRDELTKNQVSLWCLVKGFYPSDIAVEWESNGQPENNYKTTPPVLDSDGSFFLYSKLTVDKSRWQQGNVFSCSVMHEALHNRYTQKSLSLSP light: DIVMTQSPLSLPVTPGEPASISCRSSQSLVHSNRNTYLHWYQQKPGQAPRLLIYKVSNRFSGVPDRFSGSGSGTDFTLKISRVEAEDVGVYYCGQGTQVPYTFGQGTKLEIKRTVAAPSVFIFPPSDEQLKSGTASVVCLLNNFYPREAKVQWKVDNALQSGNSQESVTEQDSKDSTYSLSSTLTLSKADYEKHKVYACEVTHQGLSSPVTKSFNRGEC | 0.64
3 | CE115HA000 V100cP one-arm antibody (antibody, human IgG1, kappa, L234A L235A, N297A, name in Kabat numbering) heavy: QVQLVESGGGVVQPGRSLRLSCAASGFTFSNAWMHWVRQAPGKGLEWVAQIKAKSNNYATYYAESVKGRFTISRDDSKNSLYLQMNSLKTEDTAVYYCRYVHYGAYYGPDAWGQGTTVTVSSASTKGPSVFPLAPSSKSTSGGTAALGCLVKDYFPEPVTVSWNSGALTSGVHTFPAVLQSSGLYSLSSVVTVPSSSLGTQTYICNVNHKPSNTKVDKKVEPKSCDKTHTCPPCPAPEAAGGPSVFLFPPKPKDTLMISRTPEVTCVVVDVSHEDPEVKFNWYVDGVEVHNAKTKPREEQYASTYRVVSVLTVLHQDWLNGKEYKCKVSNKALPAPIEKTISKAKGQPREPQVYTLPPSRCELTKNQVSLSCAVKGFYPSDIAVEWESNGQPENNYKTTPPVLDSDGSFFLVSKLTVDKSRWQQGNVFSCSVMHEALHNHYTQKSLSLSPDYKDDDDK EPKSSDKTHTCPPCPAPELLGGPSVFLFPPKPKDTLMISRTPEVTCVVVDVSHEDPEVKFNWYVDGVEVHNAKTKPREEQYNSTYRVVSVLTVLHQDWLNGKEYKCKVSNKALPAPIEKTISKAKGQPREPQVCTLPPSRDELTKNQVSLWCLVKGFYPSDIAVEWESNGQPENNYKTTPPVLDSDGSFFLYSKLTVDKSRWQQGNVFSCSVMHEALHNRYTQKSLSLSP light: DIVMTQSPLSLPVTPGEPASISCRSSQSLVHSNRNTYLHWYQQKPGQAPRLLIYKVSNRFSGVPDRFSGSGSGTDFTLKISRVEAEDVGVYYCGQGTQVPYTFGQGTKLEIKRTVAAPSVFIFPPSDEQLKSGTASVVCLLNNFYPREAKVQWKVDNALQSGNSQESVTEQDSKDSTYSLSSTLTLSKADYEKHKVYACEVTHQGLSSPVTKSFNRGEC | 0.2
4 | CE115HA000 V100cD one-arm antibody (antibody, human IgG1, kappa, L234A L235A, N297A, name in Kabat numbering) heavy: QVQLVESGGGVVQPGRSLRLSCAASGFTFSNAWMHWVRQAPGKGLEWVAQIKAKSNNYATYYAESVKGRFTISRDDSKNSLYLQMNSLKTEDTAVYYCRYVHYGAYYGDDAWGQGTTVTVSSASTKGPSVFPLAPSSKSTSGGTAALGCLVKDYFPEPVTVSWNSGALTSGVHTFPAVLQSSGLYSLSSVVTVPSSSLGTQTYICNVNHKPSNTKVDKKVEPKSCDKTHTCPPCPAPEAAGGPSVFLFPPKPKDTLMISRTPEVTCVVVDVSHEDPEVKFNWYVDGVEVHNAKTKPREEQYASTYRVVSVLTVLHQDWLNGKEYKCKVSNKALPAPIEKTISKAKGQPREPQVYTLPPSRCELTKNQVSLSCAVKGFYPSDIAVEWESNGQPENNYKTTPPVLDSDGSFFLVSKLTVDKSRWQQGNVFSCSVMHEALHNHYTQKSLSLSPDYKDDDDK EPKSSDKTHTCPPCPAPELLGGPSVFLFPPKPKDTLMISRTPEVTCVVVDVSHEDPEVKFNWYVDGVEVHNAKTKPREEQYNSTYRVVSVLTVLHQDWLNGKEYKCKVSNKALPAPIEKTISKAKGQPREPQVCTLPPSRDELTKNQVSLWCLVKGFYPSDIAVEWESNGQPENNYKTTPPVLDSDGSFFLYSKLTVDKSRWQQGNVFSCSVMHEALHNRYTQKSLSLSP light: DIVMTQSPLSLPVTPGEPASISCRSSQSLVHSNRNTYLHWYQQKPGQAPRLLIYKVSNRFSGVPDRFSGSGSGTDFTLKISRVEAEDVGVYYCGQGTQVPYTFGQGTKLEIKRTVAAPSVFIFPPSDEQLKSGTASVVCLLNNFYPREAKVQWKVDNALQSGNSQESVTEQDSKDSTYSLSSTLTLSKADYEKHKVYACEVTHQGLSSPVTKSFNRGEC | 0.44
5 | CE115HA000 V95S one-arm antibody (antibody, human IgG1, kappa, L234A L235A, N297A, name in Kabat numbering) heavy: QVQLVESGGGVVQPGRSLRLSCAASGFTFSNAWMHWVRQAPGKGLEWVAQIKAKSNNYATYYAESVKGRFTISRDDSKNSLYLQMNSLKTEDTAVYYCRYSHYGAYYGVDAWGQGTTVTVSSASTKGPSVFPLAPSSKSTSGGTAALGCLVKDYFPEPVTVSWNSGALTSGVHTFPAVLQSSGLYSLSSVVTVPSSSLGTQTYICNVNHKPSNTKVDKKVEPKSCDKTHTCPPCPAPEAAGGPSVFLFPPKPKDTLMISRTPEVTCVVVDVSHEDPEVKFNWYVDGVEVHNAKTKPREEQYASTYRVVSVLTVLHQDWLNGKEYKCKVSNKALPAPIEKTISKAKGQPREPQVYTLPPSRCELTKNQVSLSCAVKGFYPSDIAVEWESNGQPENNYKTTPPVLDSDGSFFLVSKLTVDKSRWQQGNVFSCSVMHEALHNHYTQKSLSLSPDYKDDDDK EPKSSDKTHTCPPCPAPELLGGPSVFLFPPKPKDTLMISRTPEVTCVVVDVSHEDPEVKFNWYVDGVEVHNAKTKPREEQYNSTYRVVSVLTVLHQDWLNGKEYKCKVSNKALPAPIEKTISKAKGQPREPQVCTLPPSRDELTKNQVSLWCLVKGFYPSDIAVEWESNGQPENNYKTTPPVLDSDGSFFLYSKLTVDKSRWQQGNVFSCSVMHEALHNRYTQKSLSLSP light: DIVMTQSPLSLPVTPGEPASISCRSSQSLVHSNRNTYLHWYQQKPGQAPRLLIYKVSNRFSGVPDRFSGSGSGTDFTLKISRVEAEDVGVYYCGQGTQVPYTFGQGTKLEIKRTVAAPSVFIFPPSDEQLKSGTASVVCLLNNFYPREAKVQWKVDNALQSGNSQESVTEQDSKDSTYSLSSTLTLSKADYEKHKVYACEVTHQGLSSPVTKSFNRGEC | 0.22
6 | CE115HA000 V100cE one-arm antibody (antibody, human IgG1, kappa, L234A L235A, N297A, name in Kabat numbering) heavy: QVQLVESGGGVVQPGRSLRLSCAASGFTFSNAWMHWVRQAPGKGLEWVAQIKAKSNNYATYYAESVKGRFTISRDDSKNSLYLQMNSLKTEDTAVYYCRYVHYGAYYGEDAWGQGTTVTVSSASTKGPSVFPLAPSSKSTSGGTAALGCLVKDYFPEPVTVSWNSGALTSGVHTFPAVLQSSGLYSLSSVVTVPSSSLGTQTYICNVNHKPSNTKVDKKVEPKSCDKTHTCPPCPAPEAAGGPSVFLFPPKPKDTLMISRTPEVTCVVVDVSHEDPEVKFNWYVDGVEVHNAKTKPREEQYASTYRVVSVLTVLHQDWLNGKEYKCKVSNKALPAPIEKTISKAKGQPREPQVYTLPPSRCELTKNQVSLSCAVKGFYPSDIAVEWESNGQPENNYKTTPPVLDSDGSFFLVSKLTVDKSRWQQGNVFSCSVMHEALHNHYTQKSLSLSPDYKDDDDK EPKSSDKTHTCPPCPAPELLGGPSVFLFPPKPKDTLMISRTPEVTCVVVDVSHEDPEVKFNWYVDGVEVHNAKTKPREEQYNSTYRVVSVLTVLHQDWLNGKEYKCKVSNKALPAPIEKTISKAKGQPREPQVCTLPPSRDELTKNQVSLWCLVKGFYPSDIAVEWESNGQPENNYKTTPPVLDSDGSFFLYSKLTVDKSRWQQGNVFSCSVMHEALHNRYTQKSLSLSP light: DIVMTQSPLSLPVTPGEPASISCRSSQSLVHSNRNTYLHWYQQKPGQAPRLLIYKVSNRFSGVPDRFSGSGSGTDFTLKISRVEAEDVGVYYCGQGTQVPYTFGQGTKLEIKRTVAAPSVFIFPPSDEQLKSGTASVVCLLNNFYPREAKVQWKVDNALQSGNSQESVTEQDSKDSTYSLSSTLTLSKADYEKHKVYACEVTHQGLSSPVTKSFNRGEC | 0.46
